B1: Syntenin-2 (Homo sapiens), Q9H190 (parent)
chain: MSSLYPSLEDLKVDQAIQAQVRASPKMPALPVQATAISPPPVLYPNLAELENYMGLSLSSQEVQESLLQIPEGDSTAVSGPGPGQMVAPVTGYSLGVRRAEIKPGVREIHLCKDERGKTGLRLRKVDQGLFVQLVQANTPASLVGLRFGDQLLQIDGRDCAGWSSHKAHQVVKKASGDKIVVVVRDRPFQRTVTMHKDSMGHVGFVIKKGKIVSLVKGSSAARNGLLTNHYVCEVDGQNVIGLKDKKIMEILATAGNVVTLTIIPSVIYEHMVKKLPPVLLHHTMDHSIPDA
B2: Protein NOXP20 (Homo sapiens), Q8IWE2 (parent)
chain: MSDDAGDTLATGDKAEVTEMPNSDSLPEDAEVHCDSAAVSHEPTPADPRGEGHENAAVQGAGAAAIGPPVQPQDANALEPPLNGDVTEDTLAECIDSVSLEAEPRSEIPLQEQNYLAVDSPPSGGGWAGWGSWGKSLLSSASATVGHGLTAVKEKAGATLRIHGVNSGSSEGAQPNTENGVPEITDAATDQGPAESPPTSPSSASRGMLSAITNVVQNTGKSVLTGGLDALEFIGKKTMNVLAESDPGFKRTKTLMERTVSLSQMLREAKEKEKQRLAQQLTMERTAHYGMLFDEYQGLSHLEALEILSNESESKVQSFLASLDGEKLELLKNDLISIKDIFAAKELENEENQEEQGLEEKGEEFARMLTELLFELHVAATPDKLNKAMKRAHDWVEEDQTVVSVDVAKVSEEETKKEEKEEKSQDPQEDKKEEKKTKTIEEVYMSSIESLAEVTARCIEQLHKVAELILHGQEEEKPAQDQAKVLIKLTTAMCNEVASLSKKFTNSLTTVGSNKKAEVLNPMISSVLLEGCNSTTYIQDAFQLLLPVLQVSHIQTSCLKAQP
B3: Keratin, type I cytoskeletal 40 (Homo sapiens), Q6A162 (parent)
chain: MTSDCSSTHCSPESCGTASGCAPASSCSVETACLPGTCATSRCQTPSFLSRSRGLTGCLLPCYFTGSCNSPCLVGNCAWCEDGVFTSNEKETMQFLNDRLASYLEKVRSLEETNAELESRIQEQCEQDIPMVCPDYQRYFNTIEDLQQKILCTKAENSRLAVQLDNCKLATDDFKSKYESELSLRQLLEADISSLHGILEELTLCKSDLEAHVESLKEDLLCLKKNHEEEVNLLREQLGDRLSVELDTAPTLDLNRVLDEMRCQCETVLANNRREAEEWLAVQTEELNQQQLSSAEQLQGCQMEILELKRTASALEIELQAQQSLTESLECTVAETEAQYSSQLAQIQCLIDNLENQLAEIRCDLERQNQEYQVLLDVKARLEGEINTYWGLLDSEDSRLSCSPCSTTCTSSNTCEPCSAYVICTVENCCL
B4: Keratin, type I cuticular Ha8 (Homo sapiens), O76015 (parent)
chain: MTSSYSSSSCPLGCTMAPGARNVSVSPIDIGCQPGAEANIAPMCLLANVAHANRVRVGSTPLGRPSLCLPPTCHTACPLPGTCHIPGNIGICGAYGENTLNGHEKETMQFLNDRLANYLEKVRQLEQENAELEATLLERSKCHESTVCPDYQSYFHTIEELQQKILCSKAENARLIVQIDNAKLAADDFRIKLESERSLRQLVEADKCGTQKLLDDATLAKADLEAQQESLKEEQLSLKSNHEQEVKILRSQLGEKLRIELDIEPTIDLNRVLGEMRAQYEAMLETNRQDVEQWFQAQSEGISLQDMSCSEELQCCQSEILELRCTVNALEVERQAQHTLKDCLQNSLCEAEDRFGTELAQMQSLISNVEEQLSEIRADLERQNQEYQVLLDVKTRLENEIATYRNLLESEDCKLPCNPCSTSPSCVTAPCAPRPSCGPCTTCGPTCGASTTGSRF
B5: Oxidative stress-induced growth inhibitor 1 (Homo sapiens), Q9UJX0 (parent)
chain: MSSSRKDHLGASSSEPLPVIIVGNGPSGICLSYLLSGYTPYTKPDAIHPHPLLQRKLTEAPGVSILDQDLDYLSEGLEGRSQSPVALLFDALLRPDTDFGGNMKSVLTWKHRKEHAIPHVVLGRNLPGGAWHSIEGSMVILSQGQWMGLPDLEVKDWMQKKRRGLRNSRATAGDIAHYYRDYVVKKGLGHNFVSGAVVTAVEWGTPDPSSCGAQDSSPLFQVSGFLTRNQAQQPFSLWARNVVLATGTFDSPARLGIPGEALPFIHHELSALEAATRVGAVTPASDPVLIIGAGLSAADAVLYARHYNIPVIHAFRRAVDDPGLVFNQLPKMLYPEYHKVHQMMREQSILSPSPYEGYRSLPRHQLLCFKEDCQAVFQDLEGVEKVFGVSLVLVLIGSHPDLSFLPGAGADFAVDPDQPLSAKRNPIDVDPFTYQSTRQEGLYAMGPLAGDNFVRFVQGGALAVASSLLRKETRKPP
B6: Isoform 1 of Cyclin-dependent kinase 4 (Homo sapiens), P11802-1 (parent)
chain: MATSRYEPVAEIGVGAYGTVYKARDPHSGHFVALKSVRVPNGGGGGGGLPISTVREVALLRRLEAFEHPNVVRLMDVCATSRTDREIKVTLVFEHVDQDLRTYLDKAPPPGLPAETIKDLMRQFLRGLDFLHANCIVHRDLKPENILVTSGGTVKLADFGLARIYSYQMALTPVVVTLWYRAPEVLLQSTYATPVDMWSVGCIFAEMFRRKPLFCGNSEADQLGKIFDLIGLPPEDDWPRDVSLPRGAFPPRGPRPVQSVVPEMEESGAQLLLEMLTFNPHKRISAFRALQHSYLHKDEGNPE

Variants of: B1
Details: with zch10_human ZCCHC10, Q8TBK6
Sequence of zch10_human ZCCHC10, Q8TBK6 (Q8TBK6 whole entry): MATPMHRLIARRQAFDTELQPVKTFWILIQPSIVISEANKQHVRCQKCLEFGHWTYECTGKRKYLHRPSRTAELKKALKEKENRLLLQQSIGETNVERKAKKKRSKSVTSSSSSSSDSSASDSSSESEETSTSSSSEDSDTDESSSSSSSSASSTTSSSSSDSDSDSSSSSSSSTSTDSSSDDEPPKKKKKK

effect of a mutation on the interaction	Variant
with no effect	V182M
disrupting interaction strength	G225R
disrupting interaction strength	G242R

Variants of: B1
Details: with t23o_human TDO2, P48775
Sequence of t23o_human TDO2, P48775 (P48775 whole entry, looked up): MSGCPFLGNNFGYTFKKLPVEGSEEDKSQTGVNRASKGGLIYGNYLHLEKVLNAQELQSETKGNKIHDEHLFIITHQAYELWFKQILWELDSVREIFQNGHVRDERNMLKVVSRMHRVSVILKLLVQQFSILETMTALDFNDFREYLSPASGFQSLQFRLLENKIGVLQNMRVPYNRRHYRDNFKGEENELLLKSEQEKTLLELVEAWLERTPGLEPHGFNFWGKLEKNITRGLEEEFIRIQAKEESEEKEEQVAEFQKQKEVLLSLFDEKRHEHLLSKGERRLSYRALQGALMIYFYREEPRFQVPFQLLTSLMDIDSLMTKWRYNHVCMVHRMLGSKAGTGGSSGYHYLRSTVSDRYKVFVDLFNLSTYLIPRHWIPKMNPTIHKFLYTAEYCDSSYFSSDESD

effect of a mutation on the interaction	Variant
with no effect	V182M
disrupting interaction strength	G225R
disrupting interaction strength	G242R

Variants of: B1
Details: with lyar_human LYAR

effect of a mutation on the interaction	Variant
with no effect	V182M
disrupting interaction strength	G225R
disrupting interaction strength	G242R

Variants of: B1
Details: with ytdc1_human YTHDC1, Q96MU7

effect of a mutation on the interaction	Variant
disrupting interaction strength	V182M
disrupting interaction strength	G225R
disrupting interaction strength	G242R

Variants of: B1
Details: with FAM133A

effect of a mutation on the interaction	Variant
with no effect	V182M
disrupting interaction strength	G225R
disrupting interaction strength	G242R

Variants of: B2
Details: with rab2a_human RAB2A

effect of a mutation on the interaction	Variant
with no effect	S40L

Variants of: B3
Details: with wt1_human WT1, P19544
Sequence of wt1_human WT1, P19544 (P19544 whole entry): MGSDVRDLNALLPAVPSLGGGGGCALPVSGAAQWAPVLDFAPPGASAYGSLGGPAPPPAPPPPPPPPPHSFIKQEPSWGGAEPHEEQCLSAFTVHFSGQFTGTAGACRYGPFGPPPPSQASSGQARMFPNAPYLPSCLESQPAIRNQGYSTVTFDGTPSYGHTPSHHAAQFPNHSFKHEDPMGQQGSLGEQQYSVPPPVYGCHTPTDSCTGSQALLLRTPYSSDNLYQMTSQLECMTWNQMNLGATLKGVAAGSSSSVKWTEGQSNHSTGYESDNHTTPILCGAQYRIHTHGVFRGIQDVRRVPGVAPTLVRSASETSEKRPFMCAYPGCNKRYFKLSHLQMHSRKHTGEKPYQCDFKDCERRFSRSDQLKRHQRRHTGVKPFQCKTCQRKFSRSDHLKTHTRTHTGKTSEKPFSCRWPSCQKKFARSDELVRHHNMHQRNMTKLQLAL

effect of a mutation on the interaction	Variant
with no effect	W390R

Variants of: B3
Details: with k2c4_human KRT4, P19013
Target sequence in this assay (P19013 whole entry): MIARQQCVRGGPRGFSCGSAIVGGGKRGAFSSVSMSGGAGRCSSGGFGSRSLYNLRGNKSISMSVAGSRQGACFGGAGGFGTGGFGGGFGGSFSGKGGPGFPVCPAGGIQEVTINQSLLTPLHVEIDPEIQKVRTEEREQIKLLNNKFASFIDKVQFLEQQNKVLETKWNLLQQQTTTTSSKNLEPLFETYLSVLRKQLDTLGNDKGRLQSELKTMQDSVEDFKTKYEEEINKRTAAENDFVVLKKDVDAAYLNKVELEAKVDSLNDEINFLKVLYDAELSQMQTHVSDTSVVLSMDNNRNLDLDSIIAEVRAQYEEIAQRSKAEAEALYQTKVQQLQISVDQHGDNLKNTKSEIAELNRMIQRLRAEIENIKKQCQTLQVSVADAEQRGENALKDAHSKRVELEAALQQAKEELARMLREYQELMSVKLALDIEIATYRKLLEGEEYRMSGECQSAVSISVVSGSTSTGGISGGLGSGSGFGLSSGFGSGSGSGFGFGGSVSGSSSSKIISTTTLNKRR

effect of a mutation on the interaction	Variant
with no effect	W390R

Variants of: B3
Details: with mta1_human MTA1, Q13330

effect of a mutation on the interaction	Variant
with no effect	W390R

Variants of: B3
Details: with prs8_human PSMC5, P62195

effect of a mutation on the interaction	Variant
with no effect	W390R

Variants of: B3
Details: with snai1_human SNAI1, O95863

effect of a mutation on the interaction	Variant
with no effect	W390R

Variants of: B4
Details: with k2c4_human KRT4, P19013
Target sequence in this assay (P19013 whole entry): as above

effect of a mutation on the interaction	Variant
with no effect	A205S

Variants of: B4
Details: with k2c8_human KRT8, P05787
Sequence of k2c8_human KRT8, P05787 (P05787 whole entry): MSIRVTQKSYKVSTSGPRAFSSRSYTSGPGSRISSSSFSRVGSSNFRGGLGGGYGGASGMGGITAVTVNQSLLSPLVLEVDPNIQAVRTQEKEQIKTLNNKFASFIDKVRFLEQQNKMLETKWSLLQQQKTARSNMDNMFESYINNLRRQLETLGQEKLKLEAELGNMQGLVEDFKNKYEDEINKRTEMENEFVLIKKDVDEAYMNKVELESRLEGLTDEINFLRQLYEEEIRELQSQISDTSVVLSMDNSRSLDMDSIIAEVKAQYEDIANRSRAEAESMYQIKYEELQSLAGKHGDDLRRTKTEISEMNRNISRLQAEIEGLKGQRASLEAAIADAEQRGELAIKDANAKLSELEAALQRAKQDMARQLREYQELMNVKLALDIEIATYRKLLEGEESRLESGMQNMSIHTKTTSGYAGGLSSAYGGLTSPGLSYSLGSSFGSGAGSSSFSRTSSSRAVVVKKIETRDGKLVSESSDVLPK

effect of a mutation on the interaction	Variant
with no effect	A205S

Variants of: B4
Details: with KRT6A

effect of a mutation on the interaction	Variant
with no effect	A205S

Variants of: B4
Details: with k22e_human KRT2, P35908

effect of a mutation on the interaction	Variant
with no effect	A205S

Variants of: B5
Details: with htf4_human TCF12, Q99081
Sequence of htf4_human TCF12, Q99081 (Q99081 whole entry): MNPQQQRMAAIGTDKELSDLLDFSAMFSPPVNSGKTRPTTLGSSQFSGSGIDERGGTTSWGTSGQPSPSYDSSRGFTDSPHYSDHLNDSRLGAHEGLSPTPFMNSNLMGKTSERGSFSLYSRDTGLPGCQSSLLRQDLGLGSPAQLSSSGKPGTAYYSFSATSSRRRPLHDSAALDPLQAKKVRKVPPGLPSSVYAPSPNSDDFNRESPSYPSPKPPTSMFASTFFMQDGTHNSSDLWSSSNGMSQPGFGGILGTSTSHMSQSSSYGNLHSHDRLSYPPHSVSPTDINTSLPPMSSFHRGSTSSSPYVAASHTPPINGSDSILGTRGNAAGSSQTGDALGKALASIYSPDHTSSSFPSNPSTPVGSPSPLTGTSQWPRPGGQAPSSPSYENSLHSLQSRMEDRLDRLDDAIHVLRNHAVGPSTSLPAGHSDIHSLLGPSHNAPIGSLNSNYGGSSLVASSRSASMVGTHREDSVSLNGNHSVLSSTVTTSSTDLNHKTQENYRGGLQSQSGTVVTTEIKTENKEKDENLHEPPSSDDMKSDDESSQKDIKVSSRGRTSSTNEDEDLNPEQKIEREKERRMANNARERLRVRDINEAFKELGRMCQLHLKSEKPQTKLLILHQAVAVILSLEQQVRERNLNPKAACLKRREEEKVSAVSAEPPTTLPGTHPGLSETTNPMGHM

effect of a mutation on the interaction	Variant
disrupting interaction strength	S236L
with no effect	D320N

Variants of: B5
Details: with itf2_human TCF4, P15884
Sequence of itf2_human TCF4, P15884 (P15884 whole entry): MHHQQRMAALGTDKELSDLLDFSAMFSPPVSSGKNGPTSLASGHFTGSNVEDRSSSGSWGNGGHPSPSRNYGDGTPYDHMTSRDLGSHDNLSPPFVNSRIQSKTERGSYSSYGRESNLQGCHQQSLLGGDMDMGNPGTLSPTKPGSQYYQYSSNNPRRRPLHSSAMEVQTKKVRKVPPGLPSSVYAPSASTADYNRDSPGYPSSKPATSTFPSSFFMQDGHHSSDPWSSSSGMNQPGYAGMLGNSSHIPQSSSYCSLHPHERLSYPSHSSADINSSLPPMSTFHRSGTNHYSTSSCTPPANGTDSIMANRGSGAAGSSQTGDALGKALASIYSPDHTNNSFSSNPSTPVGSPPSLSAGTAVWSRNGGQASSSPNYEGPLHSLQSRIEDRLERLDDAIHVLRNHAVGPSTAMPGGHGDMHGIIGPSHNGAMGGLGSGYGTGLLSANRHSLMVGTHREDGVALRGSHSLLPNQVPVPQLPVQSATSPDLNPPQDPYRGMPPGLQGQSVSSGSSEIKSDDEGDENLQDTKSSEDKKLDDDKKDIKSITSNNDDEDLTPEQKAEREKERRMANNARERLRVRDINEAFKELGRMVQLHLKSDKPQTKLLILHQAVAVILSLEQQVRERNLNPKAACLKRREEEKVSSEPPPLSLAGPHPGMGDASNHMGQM

effect of a mutation on the interaction	Variant
with no effect	S236L
with no effect	D320N

Variants of: B5
Details: with ikzf3_human IKZF3, Q9UKT9
Sequence of ikzf3_human IKZF3, Q9UKT9 (Q9UKT9 whole entry): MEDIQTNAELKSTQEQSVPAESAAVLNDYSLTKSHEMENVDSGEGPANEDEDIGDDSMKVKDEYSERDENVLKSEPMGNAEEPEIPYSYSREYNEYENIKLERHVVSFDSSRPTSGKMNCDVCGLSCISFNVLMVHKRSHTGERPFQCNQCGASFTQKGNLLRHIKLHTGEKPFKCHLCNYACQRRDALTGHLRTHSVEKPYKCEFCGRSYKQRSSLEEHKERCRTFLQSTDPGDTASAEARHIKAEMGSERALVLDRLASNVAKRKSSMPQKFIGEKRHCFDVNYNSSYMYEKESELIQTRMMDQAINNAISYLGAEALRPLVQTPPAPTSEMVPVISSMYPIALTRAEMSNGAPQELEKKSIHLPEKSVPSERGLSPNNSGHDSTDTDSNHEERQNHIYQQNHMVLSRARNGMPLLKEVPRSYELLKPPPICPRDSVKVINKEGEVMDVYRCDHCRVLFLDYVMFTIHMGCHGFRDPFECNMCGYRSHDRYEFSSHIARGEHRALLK

effect of a mutation on the interaction	Variant
disrupting interaction strength	S236L
with no effect	D320N

Variants of: B6
Details: with ccnd1_human CCND1, P24385
Sequence of ccnd1_human CCND1, P24385 (P24385 whole entry): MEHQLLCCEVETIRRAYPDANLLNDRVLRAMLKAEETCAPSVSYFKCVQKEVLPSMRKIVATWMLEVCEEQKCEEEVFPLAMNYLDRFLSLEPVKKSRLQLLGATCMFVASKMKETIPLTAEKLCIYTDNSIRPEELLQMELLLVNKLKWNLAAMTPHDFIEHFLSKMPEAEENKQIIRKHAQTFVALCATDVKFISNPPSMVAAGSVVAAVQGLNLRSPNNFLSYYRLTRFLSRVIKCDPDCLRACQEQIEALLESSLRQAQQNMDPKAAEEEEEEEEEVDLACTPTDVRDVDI

effect of a mutation on the interaction	Variant
with no effect	S267P
with no effect	V174G
with no effect	K22R
with no effect	R255C

Variants of: B6
Details: with ccnd2_human CCND2, P30279
Sequence of ccnd2_human CCND2, P30279 (P30279 whole entry): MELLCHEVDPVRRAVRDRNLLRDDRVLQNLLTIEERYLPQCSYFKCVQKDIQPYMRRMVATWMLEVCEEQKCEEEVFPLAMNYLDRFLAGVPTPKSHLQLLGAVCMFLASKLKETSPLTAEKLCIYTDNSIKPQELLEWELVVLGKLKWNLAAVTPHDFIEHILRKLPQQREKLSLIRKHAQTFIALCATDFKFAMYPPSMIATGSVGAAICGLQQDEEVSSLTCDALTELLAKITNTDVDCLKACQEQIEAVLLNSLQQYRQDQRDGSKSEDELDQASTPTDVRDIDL

effect of a mutation on the interaction	Variant
with no effect	S267P
disrupting interaction strength	V174G
with no effect	K22R
with no effect	R255C

Variants of: B6
Details: with cdn2c_human CDKN2C

effect of a mutation on the interaction	Variant
with no effect	S267P
with no effect	V174G
with no effect	K22R
with no effect	R255C

Variants of: B6
Details: with ccnd3_human CCND3, P30281
Sequence of ccnd3_human CCND3, P30281 (P30281 whole entry): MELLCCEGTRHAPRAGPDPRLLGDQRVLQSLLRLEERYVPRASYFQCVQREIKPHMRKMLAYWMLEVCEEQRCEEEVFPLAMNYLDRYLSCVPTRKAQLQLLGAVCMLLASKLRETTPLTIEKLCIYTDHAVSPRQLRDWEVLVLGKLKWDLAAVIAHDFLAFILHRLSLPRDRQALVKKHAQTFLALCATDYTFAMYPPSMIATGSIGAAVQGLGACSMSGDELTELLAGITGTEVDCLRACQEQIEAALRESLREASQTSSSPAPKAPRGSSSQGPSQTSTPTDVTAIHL

effect of a mutation on the interaction	Variant
with no effect	S267P
with no effect	V174G
with no effect	K22R
with no effect	R255C

Variants of: B6
Details: with ccnd1_human CCND1, P24385
Remark: another data set of the same source

effect of a mutation on the interaction	Variant
with no effect	R24H
with no effect	S52N
with no effect	N41S

Variants of: B6
Details: with cdn2b_human CDKN2B

effect of a mutation on the interaction	Variant
with no effect	S52N

Variants of: B6
Details: with ccnd3_human CCND3, P30281
Remark: another data set of the same source

effect of a mutation on the interaction	Variant
with no effect	S52N

Variants of: B6
Details: with cdn2c_human CDKN2C
Remark: another data set of the same source

effect of a mutation on the interaction	Variant
with no effect	S52N

Source: IntAct's records for PubMed 31515488
